Patent US20090042248

Key:
C1-inhibitor, P05155 [1] = biological target: T1, C1-inhibitor, P05155; experiment: SDS-stable complex formation of 125I-labelled MASP fragment with C1-inhibitor, reducing SDS-PAGE, autoradiography and densitometry
T1 chain: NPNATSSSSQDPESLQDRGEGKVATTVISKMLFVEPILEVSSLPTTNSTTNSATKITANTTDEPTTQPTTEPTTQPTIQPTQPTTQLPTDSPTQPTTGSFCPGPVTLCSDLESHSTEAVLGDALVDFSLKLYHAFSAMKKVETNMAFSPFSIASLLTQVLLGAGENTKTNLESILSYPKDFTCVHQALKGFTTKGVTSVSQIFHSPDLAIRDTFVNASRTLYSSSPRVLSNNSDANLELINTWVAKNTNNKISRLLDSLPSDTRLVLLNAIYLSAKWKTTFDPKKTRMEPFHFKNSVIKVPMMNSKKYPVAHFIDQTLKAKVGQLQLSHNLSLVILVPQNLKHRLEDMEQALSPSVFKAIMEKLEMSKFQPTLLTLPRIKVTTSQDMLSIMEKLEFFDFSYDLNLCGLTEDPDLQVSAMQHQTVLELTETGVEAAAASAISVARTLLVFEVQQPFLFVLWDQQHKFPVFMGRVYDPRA

[2] = biological target: 'live' C3 (C3 with an intact thiol ester bond), P01024
[3] = biological target: T2, P1 Arg oligopeptide of the competing oligopeptide substrate library
T2 chain: HAAPRSANIQIAI

Human C2, P06681 = biological target: T3, Human C2, P06681
T3 chain: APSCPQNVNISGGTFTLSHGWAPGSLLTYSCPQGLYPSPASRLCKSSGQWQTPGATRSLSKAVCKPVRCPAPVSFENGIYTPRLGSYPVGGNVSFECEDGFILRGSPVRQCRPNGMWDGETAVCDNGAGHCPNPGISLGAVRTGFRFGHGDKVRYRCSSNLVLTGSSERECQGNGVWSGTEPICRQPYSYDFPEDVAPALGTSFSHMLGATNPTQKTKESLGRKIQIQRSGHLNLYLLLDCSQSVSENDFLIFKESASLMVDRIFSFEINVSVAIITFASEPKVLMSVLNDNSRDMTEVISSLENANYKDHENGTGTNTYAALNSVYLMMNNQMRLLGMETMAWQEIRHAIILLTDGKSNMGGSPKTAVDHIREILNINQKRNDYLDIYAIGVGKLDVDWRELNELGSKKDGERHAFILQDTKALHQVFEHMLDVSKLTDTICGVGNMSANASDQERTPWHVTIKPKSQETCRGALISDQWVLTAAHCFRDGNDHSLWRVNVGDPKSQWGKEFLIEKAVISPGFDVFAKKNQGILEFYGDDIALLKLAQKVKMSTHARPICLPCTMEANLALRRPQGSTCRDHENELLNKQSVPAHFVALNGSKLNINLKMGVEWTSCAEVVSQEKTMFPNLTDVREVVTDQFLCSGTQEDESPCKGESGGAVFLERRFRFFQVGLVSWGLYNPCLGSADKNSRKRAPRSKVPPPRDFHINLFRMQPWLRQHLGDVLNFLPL

[4] = biological target: T4, alpha-2-macroglobulin, P01023
T4 chain: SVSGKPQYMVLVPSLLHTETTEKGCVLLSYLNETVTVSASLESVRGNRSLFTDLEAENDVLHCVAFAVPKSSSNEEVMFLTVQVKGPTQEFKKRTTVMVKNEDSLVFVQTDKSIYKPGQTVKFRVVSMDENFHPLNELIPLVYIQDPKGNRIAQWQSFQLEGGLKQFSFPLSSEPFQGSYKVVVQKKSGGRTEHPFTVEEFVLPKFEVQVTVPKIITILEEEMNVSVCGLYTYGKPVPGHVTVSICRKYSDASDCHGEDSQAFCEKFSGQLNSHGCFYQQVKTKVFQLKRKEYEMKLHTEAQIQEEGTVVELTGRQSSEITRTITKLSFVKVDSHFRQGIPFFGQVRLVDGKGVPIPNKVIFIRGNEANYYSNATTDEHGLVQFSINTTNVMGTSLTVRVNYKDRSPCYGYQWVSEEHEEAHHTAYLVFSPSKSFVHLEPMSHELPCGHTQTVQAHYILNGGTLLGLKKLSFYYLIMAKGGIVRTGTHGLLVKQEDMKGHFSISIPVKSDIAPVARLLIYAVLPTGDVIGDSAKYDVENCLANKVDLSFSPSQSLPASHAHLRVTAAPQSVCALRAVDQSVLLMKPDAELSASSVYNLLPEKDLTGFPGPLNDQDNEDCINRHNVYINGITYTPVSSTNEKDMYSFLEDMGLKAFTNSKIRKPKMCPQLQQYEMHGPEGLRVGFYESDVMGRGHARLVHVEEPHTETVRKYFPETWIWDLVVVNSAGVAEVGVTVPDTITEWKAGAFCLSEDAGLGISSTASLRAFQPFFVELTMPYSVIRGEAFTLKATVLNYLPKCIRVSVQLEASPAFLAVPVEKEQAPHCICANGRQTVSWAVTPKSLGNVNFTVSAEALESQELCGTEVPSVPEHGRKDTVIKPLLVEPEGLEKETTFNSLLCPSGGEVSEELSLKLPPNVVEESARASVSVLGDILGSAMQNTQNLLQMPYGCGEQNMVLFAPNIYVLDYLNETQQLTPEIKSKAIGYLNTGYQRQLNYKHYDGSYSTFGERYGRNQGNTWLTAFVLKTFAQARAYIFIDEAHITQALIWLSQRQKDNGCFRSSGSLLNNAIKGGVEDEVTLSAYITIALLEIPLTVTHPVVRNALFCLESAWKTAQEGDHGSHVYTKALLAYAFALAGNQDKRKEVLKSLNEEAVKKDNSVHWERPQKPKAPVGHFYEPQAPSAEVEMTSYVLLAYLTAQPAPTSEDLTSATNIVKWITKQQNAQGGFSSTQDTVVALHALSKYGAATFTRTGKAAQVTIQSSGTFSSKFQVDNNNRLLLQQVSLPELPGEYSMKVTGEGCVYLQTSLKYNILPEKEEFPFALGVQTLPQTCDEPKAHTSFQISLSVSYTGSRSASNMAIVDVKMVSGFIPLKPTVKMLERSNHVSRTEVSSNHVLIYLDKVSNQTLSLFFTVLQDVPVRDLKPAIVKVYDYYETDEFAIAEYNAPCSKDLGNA

[5] = biological target: T5, P1 Lys oligopeptide of the competing oligopeptide substrate library
T5 chain: HAAPKSANIQIAI

C1-inhibitor, P05155 [6] = biological target: T1, C1-inhibitor, P05155; experiment: SDS-stable complex formation of 125I-labelled MASP fragments with C1-inhibitor

Sequence of Human C4, P0C0L4 (P0C0L4 whole entry, looked up): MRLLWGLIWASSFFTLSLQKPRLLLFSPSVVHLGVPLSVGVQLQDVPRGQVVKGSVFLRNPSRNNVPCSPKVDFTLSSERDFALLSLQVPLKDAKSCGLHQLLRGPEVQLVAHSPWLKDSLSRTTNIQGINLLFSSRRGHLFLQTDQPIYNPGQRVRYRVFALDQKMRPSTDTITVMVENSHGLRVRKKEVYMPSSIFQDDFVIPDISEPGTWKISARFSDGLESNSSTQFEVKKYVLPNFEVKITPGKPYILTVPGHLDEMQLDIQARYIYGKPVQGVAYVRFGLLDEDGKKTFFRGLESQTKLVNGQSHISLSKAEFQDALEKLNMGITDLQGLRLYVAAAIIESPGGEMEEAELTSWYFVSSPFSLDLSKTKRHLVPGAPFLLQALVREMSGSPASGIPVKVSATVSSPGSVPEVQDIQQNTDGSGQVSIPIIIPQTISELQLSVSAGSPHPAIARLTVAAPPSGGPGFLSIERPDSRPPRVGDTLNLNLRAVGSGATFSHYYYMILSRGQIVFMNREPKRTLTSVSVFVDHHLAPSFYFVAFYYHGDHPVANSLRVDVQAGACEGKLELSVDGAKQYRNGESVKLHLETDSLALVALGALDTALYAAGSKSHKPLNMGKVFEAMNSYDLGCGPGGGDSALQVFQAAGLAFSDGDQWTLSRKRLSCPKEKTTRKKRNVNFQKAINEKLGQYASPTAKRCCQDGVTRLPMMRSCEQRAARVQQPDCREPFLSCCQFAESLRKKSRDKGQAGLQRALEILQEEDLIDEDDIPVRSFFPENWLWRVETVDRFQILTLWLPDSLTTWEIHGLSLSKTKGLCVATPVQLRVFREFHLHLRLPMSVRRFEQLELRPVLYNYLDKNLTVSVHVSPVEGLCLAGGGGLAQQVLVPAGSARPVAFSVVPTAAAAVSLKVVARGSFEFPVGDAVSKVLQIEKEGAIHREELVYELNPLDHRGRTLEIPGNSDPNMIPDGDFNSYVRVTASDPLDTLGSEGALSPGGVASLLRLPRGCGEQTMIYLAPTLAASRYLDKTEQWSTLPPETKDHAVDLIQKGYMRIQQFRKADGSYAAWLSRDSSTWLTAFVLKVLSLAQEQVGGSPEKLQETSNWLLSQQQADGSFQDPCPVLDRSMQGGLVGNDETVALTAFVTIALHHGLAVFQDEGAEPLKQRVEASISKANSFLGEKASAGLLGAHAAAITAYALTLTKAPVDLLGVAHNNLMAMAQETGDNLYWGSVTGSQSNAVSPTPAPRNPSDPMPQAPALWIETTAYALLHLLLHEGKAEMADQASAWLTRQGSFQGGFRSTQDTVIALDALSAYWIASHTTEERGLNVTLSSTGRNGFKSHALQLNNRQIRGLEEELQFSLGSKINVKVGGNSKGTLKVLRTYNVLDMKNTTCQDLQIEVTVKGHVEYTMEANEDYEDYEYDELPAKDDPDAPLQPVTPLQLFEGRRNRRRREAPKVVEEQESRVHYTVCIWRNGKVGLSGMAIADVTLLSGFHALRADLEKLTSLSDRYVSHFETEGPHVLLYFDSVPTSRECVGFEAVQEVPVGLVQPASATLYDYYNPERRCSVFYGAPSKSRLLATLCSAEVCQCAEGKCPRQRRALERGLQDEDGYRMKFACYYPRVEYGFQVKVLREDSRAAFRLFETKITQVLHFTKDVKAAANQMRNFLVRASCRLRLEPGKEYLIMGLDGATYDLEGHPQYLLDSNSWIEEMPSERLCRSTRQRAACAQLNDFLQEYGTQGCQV
Sequence of 'live' C3 (C3 with an intact thiol ester bond), P01024 (P01024 whole entry, looked up): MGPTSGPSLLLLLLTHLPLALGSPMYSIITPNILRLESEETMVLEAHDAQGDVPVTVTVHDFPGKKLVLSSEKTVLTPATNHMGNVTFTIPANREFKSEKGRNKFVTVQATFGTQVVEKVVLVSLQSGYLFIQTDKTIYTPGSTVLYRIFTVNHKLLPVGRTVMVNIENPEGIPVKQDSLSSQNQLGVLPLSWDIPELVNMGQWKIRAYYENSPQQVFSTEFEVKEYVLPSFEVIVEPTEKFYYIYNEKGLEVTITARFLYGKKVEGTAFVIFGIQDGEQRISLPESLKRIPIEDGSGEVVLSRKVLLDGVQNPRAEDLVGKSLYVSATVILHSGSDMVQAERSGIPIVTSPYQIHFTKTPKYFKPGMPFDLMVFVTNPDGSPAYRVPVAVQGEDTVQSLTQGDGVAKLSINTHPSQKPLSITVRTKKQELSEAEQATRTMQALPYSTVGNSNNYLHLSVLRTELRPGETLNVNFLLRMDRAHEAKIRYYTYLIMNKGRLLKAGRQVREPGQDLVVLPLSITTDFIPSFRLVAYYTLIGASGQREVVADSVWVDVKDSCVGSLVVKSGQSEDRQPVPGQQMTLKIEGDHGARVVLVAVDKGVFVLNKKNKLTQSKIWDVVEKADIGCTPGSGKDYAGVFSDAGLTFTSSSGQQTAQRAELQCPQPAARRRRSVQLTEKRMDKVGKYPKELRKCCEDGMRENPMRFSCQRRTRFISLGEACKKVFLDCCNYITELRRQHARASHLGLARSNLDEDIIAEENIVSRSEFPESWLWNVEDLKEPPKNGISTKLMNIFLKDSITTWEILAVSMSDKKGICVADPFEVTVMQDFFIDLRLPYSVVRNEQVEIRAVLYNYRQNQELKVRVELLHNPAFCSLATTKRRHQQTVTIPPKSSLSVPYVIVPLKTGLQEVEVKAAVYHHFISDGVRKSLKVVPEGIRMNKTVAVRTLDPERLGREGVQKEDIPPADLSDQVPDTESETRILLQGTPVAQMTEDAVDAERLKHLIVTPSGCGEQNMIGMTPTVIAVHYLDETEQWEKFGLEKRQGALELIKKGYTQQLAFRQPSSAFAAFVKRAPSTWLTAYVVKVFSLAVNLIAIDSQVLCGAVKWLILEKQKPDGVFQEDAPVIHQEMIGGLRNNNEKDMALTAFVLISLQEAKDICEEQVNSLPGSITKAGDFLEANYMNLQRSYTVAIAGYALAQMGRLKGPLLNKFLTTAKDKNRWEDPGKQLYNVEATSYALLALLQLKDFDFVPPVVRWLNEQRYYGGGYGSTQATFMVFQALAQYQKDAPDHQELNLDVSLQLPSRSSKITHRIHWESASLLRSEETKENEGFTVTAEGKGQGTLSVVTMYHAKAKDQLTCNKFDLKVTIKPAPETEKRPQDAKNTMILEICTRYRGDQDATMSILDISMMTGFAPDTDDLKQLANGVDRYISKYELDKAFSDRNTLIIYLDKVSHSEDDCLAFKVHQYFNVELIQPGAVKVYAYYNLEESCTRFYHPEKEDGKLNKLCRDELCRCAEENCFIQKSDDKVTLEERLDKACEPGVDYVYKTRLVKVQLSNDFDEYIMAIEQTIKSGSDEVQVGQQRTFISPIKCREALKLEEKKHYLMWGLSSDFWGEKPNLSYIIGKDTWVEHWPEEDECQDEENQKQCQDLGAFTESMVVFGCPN
Sequence of 'dead' C3(NH3), P01024 (P01024 whole entry, looked up): as above

B1: MASP-2 CCP1-CCP2-SP fragment (protein)
chain 1: IHYTSTAQPCPYPMAPPNGHVSPVQAKYILKDSFSIFCETGYELLQGHLPLKSFTAVCQKDGSWDRPMPACSIVDCGPPDDLPSGRVEYITGPGVTTYKAVIQYSCEETFYTMKVNDGKYVCEADGFWTSSKGEKSLPVCEPVCGLSARTTGGR
chain 2: IYGGQKAKPGDFPWQVLILGGTTAAGALLYDNWVLTAAHAVYEQKHDASALDIRMGTLKRLSPHYTQAWSEAVFIHEGYTHDAGFDNDIALIKLNNKVVINSNITPICLPRKEAESFMRTDDIGTASGWGLTQRGFLARNLMYVDIPIVDHQKCTAAYEKPPYPRGSVTANMLCAGLESGGKDSCRGDSGGALVFLDSETERWFVGGIVSWGSMNCGEAGQYGVYTKVINYIPWIENIISDF
kobs (pseudo-first order rate of reaction at [C1-inh] = 350 nM) (C1-inhibitor, P05155 [1]): 0.0078 s⁻¹
kcat/KM, cleavage of live C3 [2]: 350 M⁻¹ s⁻¹
kcat/KM, cleavage of C3(NH3) ('dead' C3(NH3), P01024): 3300 M⁻¹ s⁻¹
cleavage in the competing oligopeptide substrate library [3]: both enzymes cleave oligopeptides that contain either Arg or Lys at their P1 positions
digestion of the P1 Arg oligopeptide at 15 min [3]: MASP-2 cleaved less than 20% of the substrate
KM, C2 cleavage (Human C2, P06681): 4 µM
kcat, C2 cleavage (Human C2, P06681): 1.9 s⁻¹
kcat/KM, C2 cleavage (Human C2, P06681): 500000 M⁻¹ s⁻¹
molar excess needed to abolish cleavage of complement substrates [4]: or with a large molar excess (40 fold) of alpha-2-macroglobulin
KM, C4 cleavage (Human C4, P0C0L4): 1.6 µM
kcat, C4 cleavage (Human C4, P0C0L4): 0.9 s⁻¹
kcat/KM, C4 cleavage (Human C4, P0C0L4): 550000 M⁻¹ s⁻¹
cleavage in the competing oligopeptide substrate library [5]: both enzymes cleave oligopeptides that contain either Arg or Lys at their P1 positions

B2: MASP-1 CCP1-CCP2-SP fragment (protein)
chain 1: ASMTGNECPELQPPVHGKIEPSQAKYFFKDQVLVSCDTGYKVLKDNVEMDTFQIECLKDGTWSNKIPTCKIVDCRAPGELEHGLITFSTRNNLTTYKSEIKYSCQEPYYKMLNNNTGIYTCSAQGVWMNKVLGRSLPTCLPVCGLPKFSRKLMAR
chain 2: IFNGRPAQKGTTPWIAMLSHLNGQPFCGGSLLGSSWIVTAAHCLHQSLDPEDPTLRDSDLLSPSDFKIILGKHWRLRSDENEQHLGVKHTTLHPQYDPNTFENDVALVELLESPVLNAFVMPICLPEGPQQEGAMVIVSGWGKQFLQRFPETLMEIEIPIVDHSTCQKAYAPLKKKVTRDMICAGEKEGGKDACAGDSGGPMVTLNRERGQWYLVGTVSWGDDCGKKDRYGVYSYIHHNKDWIQRVTGVRN
fold lower kobs than for the MASP-2 CCP1-CCP2-SP fragment (C1-inhibitor, P05155 [6]): 5-fold less for the MASP-1 CCP1-CCP2-SP than for the MASP-2 CCP1-CCP2-SP fragment
kobs (pseudo-first order rate of reaction at [C1-inh] = 350 nM) (C1-inhibitor, P05155 [1]): 0.0014 s⁻¹
kcat/KM, cleavage of live C3 [2]: 300 M⁻¹ s⁻¹
kcat/KM, cleavage of C3(NH3) ('dead' C3(NH3), P01024): 6100 M⁻¹ s⁻¹
cleavage in the competing oligopeptide substrate library [3]: both enzymes cleave oligopeptides that contain either Arg or Lys at their P1 positions
digestion of the P1 Arg oligopeptide at 15 min [3]: at 15 min MASP-1 showed almost 90% digestion
efficiency of digestion against the MASP-2 CCP1-CCP2-SP fragment [3]: the MASP-1 CCP1-CCP2-SP fragment digests the P1 Arg peptide 4-5 fold more efficiently than the corresponding fragment of MASP-2
KM, C2 cleavage (Human C2, P06681): 4.8 µM
kcat, C2 cleavage (Human C2, P06681): 0.1 s⁻¹
kcat/KM, C2 cleavage (Human C2, P06681): 30000 M⁻¹ s⁻¹
KM, C4 cleavage (Human C4, P0C0L4): 2.7 µM
kcat, C4 cleavage (Human C4, P0C0L4): 0.002 s⁻¹
kcat/KM, C4 cleavage (Human C4, P0C0L4): 690 M⁻¹ s⁻¹
cleavage in the competing oligopeptide substrate library [5]: both enzymes cleave oligopeptides that contain either Arg or Lys at their P1 positions
